B1: anti-CDH17 recombinant antibody 14B12 (human IgG1) (antibody, V domains shown)
VH: QVQLQESGPGLVKPSETLSLTCTVSGGSINTYYRSWIRQPPGKGLEWIGYIYYSGNTNYNPSLKSRVTISADTSKNQFSLNLISVTAADTAMYYCARAQYGEEAFDIWGQGTLVTVSS
VL: DIQMTQSPSSLSASVGDRVTITCRASQSITTYLNWYQQKPGKAPQLLIFAASRLQTGVPSRFSGSGSGTDFTLTISSLLPGDFATYYCQQSYNTPPTFGGGTKVEIKR
B2: anti-CDH17 recombinant antibody 10E11 (human IgG1) (antibody, V domains shown)
VH: EVQLVQSGTEVKKPGESLKISCKDSGYRFSSYWIGWVRQMPGKGLEWMGIIYPGDSDTRYSPSFQGQVTISADKSISTAYLQWRSLKASDTAMYYCARRGWVNYFDYWGQGTLVTVSS
VL: DIQMTQSPSSVSASVGDRVTITCRASQGISNWLGWYQQKPGKAPKLLIYAASSLQSGVPSRFSGSGSGTDFTLTISSLQPEDFATYYCQQANSFPLTFGGGTKVEIKR
B3: anti-CDH17 recombinant antibody 13C7 (human IgG1) (antibody, V domains shown)
VH: QITLKESGPTLVKPTQTLTLTCTFSGFSLSTSGVGVGWIRQPPGKALEWLALIYWNDDKRYRPSLKNRLTITKDTSKNQVVLTMTNMDPVDTATYYCTHYGVTAPFYNWFDPWGQGTLVTVSS
VL: DIQMTQSPSSLSASVGDRVTITCRASQSITSYLNWYQQKPGKAPKLLIYAASSLQSGVPSRFSGSGSGTDFTLTISSLQPEDFATYYCQRSYSTLTFGGGTKVEIKR
B4: anti-CDH17 recombinant antibody 19C7 (human IgG1) (antibody, V domains shown)
VH: QITLKESGPTLVKPTQTLTLTCTFSGISLSTGGVGVGWIRQPPGKALEWLSLIYWNDDKRYSPSLKSRLTITKDSSKNQVVLTMTNMDPVDTATYYCAHSGLAAPFYNWFDPWGQGTLVTVSS
VL: DIQMTQSPSSLSASVGDRVTITCRASQSISNYLNWYQLKPGNAPKLLIFAASSLQSGVPSRFSGSGSGTDFTLTISSLQPEDFATYFCQRSYSTLTFGGGTKVEIKR
B5: anti-CDH17 recombinant antibody 2F9 (human IgG1) (antibody, V domains shown)
VH: EVQLVESGGGVVRPGGSLRLSCAASGFTFDDYGMSWVRQAPGKGLEWVSGLSWNGGNTYYADSVKGRFTISRDNAKNSLYLQMNSLRAEDTALYYCARGSRYNWNYDAFDIWGQGTLVTVSS
VL: DIQMTQSPSSLSASIGDRVTITCRASQGIRNALGWYQQKPGKAPKRLIYAASNLQSGVPSRFSGSGSGTEFTLTISSLQPEDFATYYCLQHNSYPFTFGPGTKVEIKR
B6: anti-CDH17 recombinant antibody 9E2 (human IgG1) (antibody, V domains shown)
VH: EVQLVESGGGVVRPGGSLRLSCAASGFTFDNYGMSWVRQAPGKGLEWVSGINWNGGSTYYADSVRGRFTISRDNAKNSLYLQMNSLRAEDTALYYCARGSRYNWSYDAFDIWGQGTLVTVSS
VL: DIQMTQSPSSLSASVGDRVTITCRASQGVRNALGWYQQKPGKAPKRLIYAASSLQSGVPSRFSGSGSGTEFTLTISSLQPEDFATYYCLQHNSYPFTFGPGTKVEIKR
B7: anti-CDH17 recombinant antibody 17F3 (human IgG1) (antibody, V domains shown)
VH: EVQLVESGGGLVKSGGSLRLSCAASGFTFSSYSLKWVRQAPGKGLEWVSSISSSSGYIYYADSVKGRFTISRDNAKNSLYLQMNSLRAEDTAMYYCARAVSTIAARPGYYYYYMDVWGKGTLVTVSS
VL: DIQMTQSPSSVSASIGDRVTITCRASQDISTWFAWYQQKPGKAPKLLIYAASTLRSGVPSRFSGSGSGTDFTLTINSLQPEDFATYYCQQANSFPLTFGGGTKVEIKR
B8: anti-CDH17 recombinant antibody 15A4 (human IgG1) (antibody, V domains shown)
VH: QVQLVESGGGVVQPGRSLRLSCAASGFNFSSYGMHWVRQAPGKGLEWVAFVWYDGSNQNYADSVKGRFTISRDNSNNTLYLQMNSLRAEDTAVYYCARDRYSSGWDVFDYWGQGTLVTVSS
VL: DIQMTQSPSSVSASVGDRVTITCRASQGISSWLAWYQQKPGKAPKLLIFAASSLQSGVPSRFSGSGSGTGFTLTISSLQPEDFATYYCQQAKSFPPTFGQGTKVEIKR
B9: anti-CDH17 recombinant antibody 1H10 (human IgG1) (antibody, V domains shown)
VH: QVQLVESGGGVVQPGRSLRLSCVASGFTFSSYGMHWVRQAPGKGLEWVTFIWYDGSNKNYADSVKGRFTISRDNSKNTLNLQMNSLRVEDTAVYYCARDRYSSGWDVFDYWGQGTLVTVSS
VL: DIQMTQSPSSVSASVGDRVTITCRASQDISSWLAWYQQQPGKAPKLQIYAASSLQSGVPSRFSGSGSGTDFTLTISSLQPEDFATYYCQQAKSFPPTFGQGTKVEIKR
B10: anti-CDH17 recombinant antibody 4F9 (human IgG1) (antibody, V domains shown)
VH: QVQLQESGPGLVKPSGTLSLTCAVSGGSISSSNWWSWVRQPPGKGLEWIGEIYHSGSTSYNPSLKSRVTISVDKSKNQFSLKLSSVTAADTAVYYCARNDWGFPLDCWGQGTLVTVSS
VL: DIQMTQSPSSLSASVGDRVTITCRASQSISSYLNWYQQKPGKAPKLLIYAASSLQSGVPSRFSGSGSGTHFTLTISSLQPEDFATYYCQQSHNIPITFGQGTRLEIKR

Target: cynomolgus CDH17-His tag (Acro Biosystems, catalog number CA7-C52H4) (cynomolgus)
Assay: Octet BLI, antibody on AHC biosensor, His-tagged antigen 200 nM to 3.1 nM

**Q.** Which results are given for B1?
**A.** Kd: 2.5 nM; kon: 620000 M⁻¹ s⁻¹

**Q.** Which Kd does the source give for B2 here?
**A.** 15 nM

**Q.** What about the koff of the same binder?
**A.** 0.0012 s⁻¹

**Q.** And the kon?
**A.** 80000 M⁻¹ s⁻¹

Target: human CDH17 as originally expressed in cells (AsPC1, GP2d) (human, UniProt Q12864 23-832)
Assay: cell-based or functional assay

**Q.** Which “IC50 of indirect killing assay to evaluate the internalization of recombinant anti-CDH17 antibodies into AsPC1 cells” value (from here on “IC50 of indirect killing assay”) does the source give for B3 here?
**A.** 0.09 nM

**Q.** Which “IC50 of indirect killing assay” value does the source give for B4 here?
**A.** 0.09 nM

**Q.** B5 was tested. Which “IC50 of indirect killing assay” value did it give?
**A.** 0.14 nM

**Q.** How did the “IC50 of indirect killing assay” value turn out when B6 was run?
**A.** 0.15 nM

**Q.** Which “IC50 of indirect killing assay” value does the source give for B1 here?
**A.** 0.09 nM

**Q.** Which “IC50 of indirect killing assay” value does the source give for B2 here?
**A.** 0.08 nM

**Q.** How did the “IC50 of indirect killing assay” value turn out when B7 was run?
**A.** 0.08 nM

**Q.** How did the “IC50 of indirect killing assay” value turn out when B8 was run?
**A.** 1.99 nM

**Q.** How did the “IC50 of indirect killing assay” value turn out when B9 was run?
**A.** 0.19 nM

**Q.** With B10 as the binder, how does the “IC50 of indirect killing assay” value read?
**A.** 0.29 nM

From patent publication US20260217819A1 (HANSOH BIO, published 2026)
